{"source": "FireProtDB (doi:10.1016/s0301-4622(99)00119-2)", "details": "Bos taurus, pH 7, Absorbance, Sodium phosphate 100 mM", "note": "Values joined by “and” are separate entries in the source; they are usually repeats but may differ in a detail not shown here. Identical values can stand only once.", "data": [{"substance": "Cytochrome b wild type, P00157", "values": [{"measurement": "denaturant midpoint (higher = more stable)", "setting": "25 °C, Urea", "result": 6.8, "unit": "M"}, {"measurement": "unfolding enthalpy (van 't Hoff)", "setting": "Thermal", "result": "90.1 kcal/mol and 85.6 kcal/mol"}]}]}
